{"source": "patent US8609413B2", "about": "“Neurons, astrocytes and oligodendrocytes differentiated from a mammalian pluripotent or neural stem cells exposed to a pyridine deriviative” (Research Development Foundation, priority 2007, dated 2013)", "molecules": {"B1": {"name": "Noggin: a polypeptide playing a key role in neural induction (protein, UniProt Q13253 28-232, looked up)", "Noggin": "QHYLHIRPAPSDNLPLVDLIEHPDPIFDPKEKDLNETLLRSLLGGHYDPGFMATSPPEDRPGGGGGAAGGAEDLAELDQLLRQRPSGAMPSEIKGLEFSEGLAQGKKQRLSKKLRRKLQMWLWSQTFCPVLYAWNDLGSRFWPRYVKVGSCFSKRSCSVPEGMVCKPSKSVHLTVLRWRCQRRGGQRCGWIPIQYPIISECKCSC"}}, "test_system": "human ESC-derived NPC / ESC aggregates", "experiment": "Air/liquid interface three-dimensional culture with added factors", "assay_type": "cell-based", "conditions": "exogenously added factor", "source_text": "Air/liquid interface expansion/differentiation of NPC may be performed via the following protocol. One or more rosettes-enriched clusters may be manually removed and multiple clusters (e.g., about 5-10 clusters) may be plated on a hydrophilic polytetrafluoroethylene (PTFE) membrane (e.g., 6 mm diameter, 0.4 μm, BioCell-Interface, La Chaux-de-Fonds, Switzerland). This membrane may be deposited on a Millicell®-CM (0.4 μm) Culture Plate Insert (Millipore) (FIG. 5A). N2 medium may preferably be added (e.g., about 1 ml) underneath the membrane insert.\nAir/liquid interface expansion/differentiation of NPC. Rosettes-enriched cluster were manually removed and 5-10 clusters were plated on a hydrophilic polytetrafluoroethylene (PTFE) membrane (6 mm diameter, 0.4 μm, BioCell-Interface, La Chaux-de-Fonds, Switzerland). This membrane was deposited on a Millicell®-CM (0.4 μm) Culture Plate Insert (Millipore) (FIG. 1). One ml of N2 medium was added underneath the membrane insert.", "data": [{"molecule": "B1", "values": [{"measurement": "phenotype of engineered tissue", "value": "had no influence on the self-organization and phenotype"}]}]}
